Measured values from patent publication EP4748858A1 (Nanjing Probio Biotech Co., Ltd., dated 2026).
Where a chain is given by its changes, count along the chain named. Each block holds one binder with its values, some of them ahead of it.

Key:
[1] = molecular target: T1, human CD7 expressed on cells (human, UniProt P09564 26-240); experiment: cell-based or functional assay
T1 sequence (looked up): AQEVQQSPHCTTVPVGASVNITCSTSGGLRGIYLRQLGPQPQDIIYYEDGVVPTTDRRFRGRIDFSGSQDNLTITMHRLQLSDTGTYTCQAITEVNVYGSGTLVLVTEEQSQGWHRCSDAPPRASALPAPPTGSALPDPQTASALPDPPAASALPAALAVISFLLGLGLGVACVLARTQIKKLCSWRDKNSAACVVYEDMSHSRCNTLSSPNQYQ

[2] = molecular target: T1, human CD7 expressed on cells; experiment: cell-based or functional assay; remark: listed apart in the source
[3] = molecular target: T2, recombinant protein of the human CD7 extracellular domain, CD7-His (human, UniProt P09564 26-180); experiment: indirect ELISA, plate coated with 1 µg/ml human CD7, anti-human IgG Fc-HRP
T2 construct: range 25-645; also called human CD7-His protein; recombinant human CD7; not shown: His protein tag
T2 sequence (looked up): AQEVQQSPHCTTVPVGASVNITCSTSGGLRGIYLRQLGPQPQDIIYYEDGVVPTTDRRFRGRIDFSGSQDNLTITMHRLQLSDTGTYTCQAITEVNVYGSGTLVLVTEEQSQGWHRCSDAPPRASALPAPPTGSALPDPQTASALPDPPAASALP

[4] = molecular target: T3, monkey CD7 (Sino Biological, 90993-H08H) (monkey); experiment: indirect ELISA, plate coated with 1 µg/ml monkey CD7, anti-human IgG Fc-HRP
T3 construct: Bought recombinant protein; also called Monkey CD7 protein

[5] = molecular target: T4, mouse CD7 (ACROBiosystems, CD7-M52H3) (mouse, UniProt P50283 24-150); experiment: indirect ELISA, plate coated with 1 µg/ml mouse CD7
T4 construct: Bought recombinant protein; also called Mouse CD7 protein
T4 sequence (looked up): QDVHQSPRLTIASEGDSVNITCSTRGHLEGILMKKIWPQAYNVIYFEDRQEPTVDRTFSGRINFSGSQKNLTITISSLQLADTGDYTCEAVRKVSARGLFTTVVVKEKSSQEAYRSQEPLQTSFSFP

[6] = molecular target: T2, recombinant protein of the human CD7 …; experiment: SPR Biacore T200, antibody captured via Fc, human CD7 as analyte

B1: AHP19485-VHH1 CAR (other)
chain: EVQLVESGGGLVQPGGSLRLSCAASERIFSIHAMGWYRQAPGKQRELVSSITIGGSTHYADSVKGRFTISRDNSKNTLYLQMNSLRAEDTAVYYCNSMLLAGTVGGSWGQGTLVTVSSGGGSGGGSGGGSGGGSEVQLVESGGGLVQPGGSLRLSCAASERIFSIHAMGWYRQAPGKQRELVSSITIGGSTHYADSVKGRFTISRDNSKNTLYLQMNSLRAEDTAVYYCNSMLLAGTVGGSWGQGTLVTVSSAAADYKDDDDKIEVMYPPPYLDNEKSNGTIIHVKGKHLCPSPLFPGPSKPFWVLVVVGGVLACYSLLVTVAFIIFWVRSKRSRLLHSDYMNMTPRRPGPTRKHYQPYAPPRDFAAYRSRVKFSRSADAPAYQQGQNQLYNELNLGRREEYDVLDKRRGRDPEMGGKPRRKNPQEGLYNELQKDKMAEAYSEIGMKGERRRGKGHDGLYQGLSTATKDTYDALHMQALPPR
- % Cytotoxicity of CAR-T cells against Jurkat/Luc, E/T = 1 : 1 [1]: 29.7%
- % Cytotoxicity of CAR-T cells against Jurkat/Luc, E/T = 5 : 1 [1]: 86%
- % Cytotoxicity of CAR-T cells against Jurkat/Luc, E/T = 20 : 1 [1]: 99.4%
- % Cytotoxicity of CAR-T cells against CCRF-CEM/Luc, E/T = 1 : 1 [2]: 57.4%
- % Cytotoxicity of CAR-T cells against CCRF-CEM/Luc, E/T = 5 : 1 [2]: 61.2%
- % Cytotoxicity of CAR-T cells against CCRF-CEM/Luc, E/T = 20 : 1 [2]: 78.2%

B2: AHP19484 (Fc fusion)
chain: QVKLEESGGGLVQPGGSLRLSCVASGSSFHFAFMGWYRQAPGKQRELVADISPGNSTNYADPVKGRFVISRDNAKNTVYLQMNSLKPEDTAVYFCRDLRSWGAWGRGTQVTVSS
notes: Alpaca VHH expressed as fusion to human IgG1 Fc; also called AHP19484-VHH; not shown: human IgG1 Fc of expression vector pcDNA3.4-Fc (HuIgG1)
- EC50 [3]: 0.278 nM
- EC50 [4]: 7.03 nM
- binding result [5]: no binding (tested: 8 µg/ml (about 100 nM))
- Kd [6]: 0.12 nM
- koff [6]: 6.03e-05 s⁻¹
- kon [6]: 502000 M⁻¹ s⁻¹

B7: AHP19494 (Fc fusion)
chain: QVKLEESGGGLVQAGGSLRLSCAAPGRTLSASIKAWFRQAPGKDREFAAAIRWSGDSTYYADSVKGRFTISRDNAKNTVDLQMNSLKPEDTAVYYCNAGGLLSNGYQPGSSWGQGTQVTVSS
notes: Alpaca VHH expressed as fusion to human IgG1 Fc; not shown: human IgG1 Fc of expression vector pcDNA3.4-Fc (HuIgG1)
- EC50 [3]: 1.47 nM
- binding result [5]: no binding (tested: 8 µg/ml (about 100 nM))

B8: AHP19483 (Fc fusion)
chain: AVQLVDSGGGLVQAGGSLTLSCAASGRTFSRYTMGWFRQAPGKERELVASISWSGGSTDYADSVKDRFTISRDNTKNTVYLQMNGLKPEDTAVYYCNTDRMPYRPVVGGILSWEPYWGQGTQVTVTP
notes: as for B7
- EC50 [3]: 0.231 nM
- binding result [5]: no binding (tested: 8 µg/ml (about 100 nM))

B9: AHP19509-VHH1 CAR (other)
chain: EVQLVESGGGLVQPGGSLRLSCAASGGTFNRYTMGWFRQAPGKEREFVSAISWSGGSTDYADSVKGRFTISRDNSKNTLYLQMNSLRAEDTAVYYCDTDRMPYRPVAAGILSWEANWGQGTLVTVSSGGGSGGGSGGGSGGGSEVQLVESGGGLVQPGGSLRLSCAASGGTFNRYTMGWFRQAPGKEREFVSAISWSGGSTDYADSVKGRFTISRDNSKNTLYLQMNSLRAEDTAVYYCDTDRMPYRPVAAGILSWEANWGQGTLVTVSSAAADYKDDDDKIEVMYPPPYLDNEKSNGTIIHVKGKHLCPSPLFPGPSKPFWVLVVVGGVLACYSLLVTVAFIIFWVRSKRSRLLHSDYMNMTPRRPGPTRKHYQPYAPPRDFAAYRSRVKFSRSADAPAYQQGQNQLYNELNLGRREEYDVLDKRRGRDPEMGGKPRRKNPQEGLYNELQKDKMAEAYSEIGMKGERRRGKGHDGLYQGLSTATKDTYDALHMQALPPR
- % Cytotoxicity of CAR-T cells against Jurkat/Luc, E/T = 1 : 1 [1]: 62.4%
- % Cytotoxicity of CAR-T cells against Jurkat/Luc, E/T = 5 : 1 [1]: 93%
- % Cytotoxicity of CAR-T cells against Jurkat/Luc, E/T = 20 : 1 [1]: 99.6%
- % Cytotoxicity of CAR-T cells against CCRF-CEM/Luc, E/T = 1 : 1 [2]: 74.8%
- % Cytotoxicity of CAR-T cells against CCRF-CEM/Luc, E/T = 5 : 1 [2]: 60.2%
- % Cytotoxicity of CAR-T cells against CCRF-CEM/Luc, E/T = 20 : 1 [2]: 84.6%

B10: AHP19509 (Fc fusion)
chain: QVKLEESGGGLVQAGGSLRLSCAASGGTFNRYTMGWFRQAPGKEREFVAAISWSGGSTDYADSVKGRFTISRDNTKNTVYLQMNSLKPEDAAVYYCDTDRMPYRPVAAGILSWEANWGQGTQVTVSS
notes: Alpaca VHH expressed as fusion to human IgG1 Fc; also called AHP19509-VHH; not shown: human IgG1 Fc of expression vector pcDNA3.4-Fc (HuIgG1)
- EC50 [3]: 0.209 nM
- binding result [5]: no binding (tested: 8 µg/ml (about 100 nM))
- Kd [6]: 0.0765 nM
- koff [6]: 2.3e-05 s⁻¹
- kon [6]: 301000 M⁻¹ s⁻¹

B11: AHP19481 (Fc fusion)
chain: AVQLVDSGGGLVQPGGSLRLSCAASGFTFSGFAMSWYRQAPGKERELVATISRFGESSNYEDSVKGRFTISRDNAKDTGYLQMNSLKPEDTAVYYCNAEAPAGSLWYGNNYWGQGTQVTVSS
notes: as for B7
- EC50 [3]: 0.238 nM
- binding result [5]: no binding (tested: 8 µg/ml (about 100 nM))

B12: AHP19490 (Fc fusion)
chain: B11 chain with A1Q, D6E, A33D, E56G, A75V, G79V, N97Y, E99L, Y107H, N109D
notes: as for B7
- EC50 [3]: 0.268 nM
- binding result [5]: no binding (tested: 8 µg/ml (about 100 nM))

The remaining binders from weak to strong by EC50 [3], led by results:

- EC50 [3]: 0.2 nM
B14: AHP19508 (Fc fusion)
chain: AVQLVDSGGGLVQPGGSLRLSCAASGDFARLYEMAWYRQTPGQQREVVAQITVGGSTKYADSVKGRFTISRDSAKNTVYLQMNSLRPEDTAVYYCHAWPALWGQGTQVTVSS
notes: as for B7
- binding result [5]: no binding (tested: 8 µg/ml (about 100 nM))

- EC50 [3]: 0.179 nM
B13: AHP19472 (Fc fusion)
chain: B11 chain with R19G, A33D, E46M, S52T, E56G, K76R, G79V, V93M, N97H, Y107F
notes: Alpaca VHH expressed as fusion to human IgG1 Fc in HEK293-6E; not shown: human IgG1 Fc of expression vector pcDNA3.4-Fc (HuIgG1)
- binding result [5]: no binding (tested: 8 µg/ml (about 100 nM))

- EC50 [3]: 0.173 nM
B6: AHP19487 (Fc fusion)
chain: DVQLVESGGGLVQPGGSLRLSCAFPGSAFSFYFMGWYRQAPGKQRELVGDITPGGTANYADSVKGRFTISRDSAKNTVYLQMNSLKPEDTAVYYCNADRRVTIRPDGYWGQGTQVTVSS
notes: as for B7
- binding result [5]: no binding (tested: 8 µg/ml (about 100 nM))

- EC50 [3]: 0.168 nM
- Kd [6]: 0.289 nM
- koff [6]: 7.73e-05 s⁻¹
- kon [6]: 268000 M⁻¹ s⁻¹
B5: AHP19485 (Fc fusion)
chain: EVQLVESGGGLVQPGGSLRLSCASSERIFSIHAMGWYRQAPGKQRELVASITIGGSTHYADSVKGRFTISRDNAKNTVYLHMNSLKPEDTAVYYCNSMLLAGTVGGSWGQGTQVTVSS
notes: Alpaca VHH expressed as fusion to human IgG1 Fc; also called AHP19485-VHH; not shown: human IgG1 Fc of expression vector pcDNA3.4-Fc (HuIgG1)
- binding result [5]: no binding (tested: 8 µg/ml (about 100 nM))

- EC50 [3]: 0.166 nM
B3: AHP19511 (Fc fusion)
chain: AVQLVESGGGLVQPGGSLRLSCAASGFTFSNAVIGWYRQAPGKQRELVASITPGGRTTYPDSVKGRFIISRDNAKNTVYLEMNSLKLEDTAVYYCNDFRGLGGYWGQGTQVTVSS
notes: as for B7
- binding result [5]: no binding (tested: 8 µg/ml (about 100 nM))

- EC50 [3]: 0.158 nM
B4: AHP19495 (Fc fusion)
chain: AVQLVESGGGLVQPGGSLRLSCAASGFTASRDVMSWYRQPPGKERELVASIFSAGSKETYAESVKGRFTISIDNVKNTVNLQMDNLKPEDTAVYYCHRWPGYWGQGTQVTVSS
notes: as for B7
- binding result [5]: no binding (tested: 8 µg/ml (about 100 nM))
